± gives the half width of the 95% confidence interval.
How the values were obtained:
[1] = folding stability dG unfold from chymotrypsin proteolysis; higher = more stable
Method in brief: (§1)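 Only designs with AlphaFold2 dimer inter-PAE above 15 were retained; each was a mini-protein under 80 residues with no cysteine, in a PA-tagged cDNA display construct. After digestion with trypsin and chymotrypsin and sequencing, K50 was inferred by Bayesian fitting of counts, and unfolding free energy was derived per protease or combined against a sequence-predicted unfolded-state K50 and a shared folded-state K50.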

[2] = folding stability dG unfold (combined trypsin and chymotrypsin); higher = more stable
Method in brief: as §1

[3] = folding stability dG unfold from trypsin proteolysis; higher = more stable
Method in brief: as §1

Sequence | folding stability dG unfold [1] [kcal/mol] | folding stability dG unfold [2] [kcal/mol] | folding stability dG unfold [3] [kcal/mol]
SAGGSAGGSAKKKKKKKKYKPKPVKIFKIKLKLKLEKTKDGLKLKIEEIEIEEIATLEKGLSAGGSAGGSAG [r3_397_TrROS_Hall] | 2.72 ± 0.1 | 2.43 ± 0.44 | 1.88 ± 0.12
SAGGSAGGSAKKKKYKVKIKVINENGEIYEIDEIYFDEKTKKIYIKIKNKDGEEKVFEIELDSAGGSAGGSA [r18_370_TrROS_Hall] | 3.74 ± 0.051 | 3.25 ± 0.13 | 2.4 ± 0.059
SAGGSAGGSAKKPKKFKITKISTVKNKNGKTYYKLVIEDEKTKKKYVFVFPKNKEEILKALSAGGSAGGSAG [r3_57_TrROS_Hall] | 2.53 ± 0.062 | 2.45 ± 0.15 | 2 ± 0.061
SAGGSAGGSAKKPTAEEILKKLKLPEGAKIVKIEVEYDKKTKKVTIKIEIKVNGKTYTFEIKSAGGSAGGSA [r18_354_TrROS_Hall] | 4.39 ± 0.11 | 3.94 ± 0.18 | 2.81 ± 0.15
SAGGSAGGSAKKTLTVKPGQTVTVKNKKTGKTYTATVEKDKDGNLTVKLENGKTYTINLKDLSAGGSAGGSA [r18_169_TrROS_Hall] | 2.15 ± 0.078 | 1.8 ± 0.093 | 0.967 ± 0.083
SAGGSAGGSAKKVVTVPEDATLEEIEELLKSGEKVTVVIHNKETGKTETLEFDSLEELKAASAGGSAGGSAG [r3_362_TrROS_Hall] | 1.91 ± 0.16 | 1.53 ± 0.17 | 0.601 ± 0.072
SAGGSAGGSAKKYVLLVTYRHPENGETRTVLVEVETEEEVERAVKELAPPEFDEVKVYVLPASAGGSAGGSA [r18_258_TrMRF] | 2.79 ± 0.046 | 2.83 ± 0.12 | 2.83 ± 0.15
SAGGSAGGSAKMIFVKNEDGTITMFTLNEDGYLTVTTVTLDKKTKKMTVETKTIKLTDPELLSAGGSAGGSA [r18_503_TrROS_Hall] | 2.46 ± 0.081 | 2.14 ± 0.17 | 1.16 ± 0.027
SAGGSAGGSAKMIIRIRNKNGKIIELTLEEVAKKLGLSKEEMTAEEILKKLKENIEKVEILPSAGGSAGGSA [r18_403_TrROS_Hall] | 3.18 ± 0.048 | 3.1 ± 0.07 | 2.9 ± 0.047
SAGGSAGGSAKMVIVNITLKNKDGKEFTISIEADPSVIKNIIKKLFNAKINKIEIYPLSEALSAGGSAGGSA [r18_107_TrMRF] | 2.21 ± 0.08 | 2.28 ± 0.15 | 2.49 ± 0.11
SAGGSAGGSAKPKPVETVEVTVTGKDGKKYKVTVVYDEKTGKLYVKYNGKIYKVDSLEEALKSAGGSAGGSA [r18_67_TrROS_Hall] | 4.12 ± 0.073 | 3.86 ± 0.2 | 2.44 ± 0.19
SAGGSAGGSAKPKVVLVEYDEKTGKFKIVFPDGKELEITGLTPEQIKELAKSLGADYVIIESAGGSAGGSAG [r3_78_TrMRF] | 4.06 ± 0.098 | 3.83 ± 0.09 | 3.38 ± 0.12
SAGGSAGGSAKPLKKLVLLLKVKGPFEEVEKILNEEFGVKKIVAFKDPETDEVYALIYLGDPSAGGSAGGSA [r18_275_TrMRF] | 2.86 ± 0.04 | 2.62 ± 0.085 | 2.23 ± 0.052
SAGGSAGGSAKPNKKFKFELVEVKEIEIYDKETNEKVYKISVAKVRLEDGSLLTFISIEEKSAGGSAGGSAG [r3_166_TrROS_Hall] | 3.78 ± 0.059 | 3.19 ± 0.22 | 2.34 ± 0.085
SAGGSAGGSAKPPVTLTILVKNPETGEWVRLEVEFLPDGTVKITVTNPNGEKYTFTFKLPPSAGGSAGGSAG [r3_61_TrROS_Hall] | 5.6 ± 0.16 | 5.6 ± 0.27 | 3.67 ± 0.18
SAGGSAGGSAKPRVKIVEVDEEKKRVLVKTEDGEVVELEGLTPEQIEELAKALGADEVELVSAGGSAGGSAG [r3_78_TrROS_Hall] | 1.53 ± 0.095 | 1.12 ± 0.17 | 0.174 ± 0.07
SAGGSAGGSAKPTYRVLVKNEDGEVLEAEVKVVDGKVEVTVNGKVYTFPKGAKIEIVKIEPVSAGGSAGGSA [r18_144_TrROS_Hall] | 2.92 ± 0.054 | 3.08 ± 0.11 | 3.34 ± 0.2
SAGGSAGGSAKTITITVKPEDMTEEELKEKIAEELGIDPEEIEIVKVEKLPNGEVKVTIKIKSAGGSAGGSA [r18_118_TrROS_Hall] | 1.93 ± 0.11 | 3.08 ± 0.16 | 3.59 ± 0.17
SAGGSAGGSAKTVVINIKDLKLSKDGKLTVEEIKKRIKELLKKKGIKKVTVKTVEELLKALKSAGGSAGGSA [r18_72_TrROS_Hall] | 1.41 ± 0.086 | 1.26 ± 0.074 | 0.898 ± 0.062
SAGGSAGGSAKTYEVKITVTNPNGEKKEITLEVEAETEEELLAAIKALAPPGAKVEIEIREVSAGGSAGGSA [r18_60_TrROS_Hall] | 3.67 ± 0.075 | 4 ± 0.13 | 4.33 ± 0.28
SAGGSAGGSAKVKAEIEYDPATGKITIKLITEDERGGKTEEAEITIPIPIPAPPAPPADVDKSAGGSAGGSA [r18_361_TrMRF] | 1.69 ± 0.15 | 1.27 ± 0.12 | -0.0238 ± 0.12
